# The RNAGym collection of RNA variant scans (doi:10.1093/molbev/msab373)
# B1: Azoarcus group I ribozyme (parent)
# chain: GUGCCUUGCGCCGGGAAACCACGCAAGGGAUGGUGUCAAAUUCGGCGAAACCUAAGCGCCCGCCCGGGCGUAUGGCAACGCCGAGCCAAGCUUCGGCGCCUGCGCCGAUGAAGGUGUAGAGACUAGACGGCACCCACCUAAGGCAAACGCUAUGGUGAAGGCAUAGUCCAGGGAGUGGCGAAAGUCACACAAACCGG
# Variants of: B1
# Test: reverse-splicing fitness (ratio to wild type); higher = more active; in vitro selection; Mg2+ level not given
# Procedure, shortened: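 An in vitro group I ribozyme library with randomized positions was T7-transcribed and gel-purified. In triplicate, 10 pmol RNA in EPPS pH 7.5 was reacted with 50 pmoles of a 30-nt RNA substrate for 1 h at 37 °C across several added MgCl2 levels (1–48 mM), then stopped with EDTA. Products were reverse transcribed from a substrate-complementary primer, PCR-amplified and sequenced (HiSeq 4000). Fitness is a variant's read proportion after selection over that before, normalised to wild type.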
row,Variant,reverse-splicing fitness
1,A111G A145C C169A,0.0493
2,A111G A145C C169U,0.188
3,A111G A145C C169G,0.116
4,A111G A145G C169A U176C,0.036
5,A111G A145G C169A U176G,0.00526
6,A111G A145G C169A U176A,0.0226
7,A111U A120C A145C C150G C169G U176C,0.0059
8,A111U A120C A145C C150G C169G U176A,0.00898
9,A111U A120C A145C C150G C169G U176G,0.00475
10,A111G A145G C150U C169G,0.101
11,A111G A145G C150U C169U,0.168
12,A111G A145G C150U C169A,0.0452
13,A111G C150A C169U U176G,0.00628
14,A111G C150A C169U U176A,0.0199
15,A111G C150A C169U U176C,0.0264
16,A111G A120U C150U C169U U176C,0.02
17,A111G A120U C150U C169U U176A,0.016
18,A111G A120U C150U C169U U176G,0.0032
19,A111G C150A C169A U176G,0.00678
20,A111G C150A C169A U176C,0.0177
21,A111G C150A C169A U176A,0.0171
22,A111G A145U C150A,0.365
23,A111G A145U C150U,0.952
24,A111G A145U C150G,0.449

row,Variant,reverse-splicing fitness
1,A111G A145G C150U C169G U176G,0.00595
2,A111G A145G C150U C169G U176C,0.0431
3,A111G A145G C150U C169G U176A,0.0289
4,A111G A145C C169U U176G,0.00859
5,A111G A145C C169U U176C,0.0591
6,A111G A145C C169U U176A,0.0432
7,A111U A120C A145C C150A C169G U176A,0.0194
8,A111U A120C A145C C150A C169G U176G,0.00536
9,A111U A120C A145C C150A C169G U176C,0.00889
10,A111G A120U C169A U176C,0.00321
11,A111G A120U C169A U176A,0.0033
12,A111G A120U C169A U176G,0.00161
13,A111G A145U C150G C169G,0.0152
14,A111G A145U C150G C169U,0.0229
15,A111G A145U C150G C169A,0.0108
16,A111G A145C C150G U176A,0.17
17,A111G A145C C150G U176G,0.0319
18,A111G A145C C150G U176C,0.212
19,A111G A120U C150G U176C,0.0248
20,A111G A120U C150G U176A,0.0102
21,A111G A120U C150G U176G,0.00318
22,A111G A145G C150A C169G,0.0238
23,A111G A145G C150A C169A,0.0138
24,A111G A145G C150A C169U,0.0371

row,Variant,reverse-splicing fitness
1,A111G A120U C169U U176A,0.0277
2,A111G A120U C169U U176G,0.00411
3,A111G A120U C169U U176C,0.0395
4,A111G A145C C150G C169A U176G,0.00652
5,A111G A145C C150G C169A U176C,0.00646
6,A111G A145C C150G C169A U176A,0.0077
7,A111G C169G U176G,0.00607
8,A111G C169G U176A,0.0309
9,A111G C169G U176C,0.0577
10,A111G A145G C169G U176A,0.0326
11,A111G A145G C169G U176G,0.00638
12,A111G A145G C169G U176C,0.0596
13,A111G A145G C150A U176C,0.32
14,A111G A145G C150A U176G,0.109
15,A111G A145G C150A U176A,0.297
16,A111G A145G C150U U176A,0.72
17,A111G A145G C150U U176C,0.713
18,A111G A145G C150U U176G,0.25
19,A111G C150U C169G U176G,0.00579
20,A111G C150U C169G U176A,0.0243
21,A111G C150U C169G U176C,0.0386
22,A111U A120C A145C,0.537
23,A111G C150A,0.462
24,A111G C150U,0.905

row,Variant,reverse-splicing fitness
1,A111G C150G,0.363
2,A111G A120U C150U C169G U176C,0.0106
3,A111G A120U C150U C169G U176A,0.0102
4,A111G A120U C150U C169G U176G,0.00215
5,A111G C150A C169G U176C,0.0218
6,A111G C150A C169G U176G,0.00767
7,A111G C150A C169G U176A,0.0252
8,A111G A145C C150A U176G,0.0755
9,A111G A145C C150A U176A,0.129
10,A111G A145C C150A U176C,0.128
11,A111G A145U C169U U176G,0.00767
12,A111G A145U C169U U176C,0.0656
13,A111G A145U C169U U176A,0.0488
14,A111U,0.971
15,A111G A120U C169G,0.103
16,A111G A120U C169U,0.144
17,A111G A120U C169A,0.00619
18,A111U A120C A145C C150G C169G,0.00716
19,A111U A120C A145C C150G C169U,0.0236
20,A111U A120C A145C C150G C169A,0.00818
21,A111U A120C A145C C150G U176A,0.0176
22,A111U A120C A145C C150G U176G,0.00429
23,A111U A120C A145C C150G U176C,0.04
24,A111G A145U C150U U176A,0.677

row,Variant,reverse-splicing fitness
1,A111G A145U C150U U176G,0.317
2,A111G A145U C150U U176C,0.697
3,A111G C150G C169G U176A,0.00723
4,A111G C150G C169G U176G,0.00539
5,A111G C150G C169G U176C,0.00463
6,A111U A120C A145C C150G C169U U176A,0.0109
7,A111U A120C A145C C150G C169U U176G,0.00478
8,A111U A120C A145C C150G C169U U176C,0.0144
9,A111G C150U C169A U176G,0.00554
10,A111G C150U C169A U176C,0.0193
11,A111G C150U C169A U176A,0.0169
12,A111G A145C C150U C169A U176A,0.0101
13,A111G A145C C150U C169A U176G,0.0059
14,A111G A145C C150U C169A U176C,0.00832
15,A111G A120U C150G C169U U176C,0.00437
16,A111G A120U C150G C169U U176G,0.00256
17,A111G A120U C150G C169U U176A,0.00346
18,A111G C150U U176G,0.271
19,A111G C150U U176A,0.686
20,A111G C150U U176C,0.646
21,A111G A145C C150G C169A,0.0117
22,A111G A145C C150G C169G,0.018
23,A111G A145C C150G C169U,0.0255
24,A111U A120C A145C C150A,0.0343

row,Variant,reverse-splicing fitness
1,A111U A120C A145C C150G,0.0767
2,A111U A120C A145C C150U,0.17
3,A111G A145C C150U U176C,0.491
4,A111G A145C C150U U176A,0.456
5,A111G A145C C150U U176G,0.23
6,A111G A145G C150U C169U U176C,0.0611
7,A111G A145G C150U C169U U176G,0.00616
8,A111G A145G C150U C169U U176A,0.0415
9,A111G C150A C169G,0.0174
10,A111G C150A C169A,0.0135
11,A111G C150A C169U,0.0262
12,A111G A145C C150G C169G U176C,0.00562
13,A111G A145C C150G C169G U176A,0.00824
14,A111G A145C C150G C169G U176G,0.00435
15,A111G A145G C150G C169G U176A,0.00939
16,A111G A145G C150G C169G U176C,0.00813
17,A111G A145G C150G C169G U176G,0.00506
18,A111G A145G C150A C169G U176G,0.00564
19,A111G A145G C150A C169G U176C,0.0276
20,A111G A145G C150A C169G U176A,0.0234
21,A111G A145U C169A,0.0537
22,A111G A145U C169U,0.194
23,A111G A145U C169G,0.13
24,A111G A145C C150A C169U,0.0168

row,Variant,reverse-splicing fitness
1,A111G A145C C150A C169A,0.00859
2,A111G A145C C150A C169G,0.0111
3,A111U A120C A145C C150U C169A,0.00788
4,A111U A120C A145C C150U C169G,0.00744
5,A111G A120U C150U U176C,0.249
6,A111G A120U C150U U176G,0.0744
7,A111G A120U C150U U176A,0.23
8,A111G A145C C150A C169G U176C,0.0114
9,A111G A145C C150A C169G U176A,0.02
10,A111G A145C C150A C169G U176G,0.00534
11,A111U A120C,0.587
12,A111G C150G C169U,0.0227
13,A111G C150G C169G,0.0138
14,A111G C150G C169A,0.0114
15,A111G A145U C169G U176A,0.0268
16,A111G A145U C169G U176C,0.0429
17,A111G A145U C169G U176G,0.00522
18,A111U A120C A145C C150U C169A U176C,0.00539
19,A111U A120C A145C C150U C169A U176G,0.00529
20,A111U A120C A145C C150U C169A U176A,0.00887
21,A111G A120U U176G,0.164
22,A111G A120U U176C,0.445
23,A111G A120U U176A,0.432
